Consider 8 molecules from patent publication US20250171562A1 (ALK ABELL, published 2025).

For orientation: EC50 means the concentration that produces a half-maximal response.

B1: CIgG4E1A1(G4S)3 (Fc fusion)
chain 1: GPPCPPCPAPEFLGGPSVFLFPPKPKDTLMISRTPEVTCVVVDVSQEDPEVQFNWYVDGVEVHNAKTKPREEQFNSTYRVVSVLTVLHQDWLNGKEYKCKVSNKGLPSSIEKTISKAKGQPREPQVYTLPPCQEEMTKNQVSLWCLVKGFYPSDIAVEWESNGQPENNYKTTPPVLDSDGSFFLYSRLTVDKSRWQEGNVFSCSVMHEALHNHYTQKSLSLSLGKGGGGSGGGGSGGGGSDVQLQESGGGLVQAGGSLRLSCLASGRTFTTTSGYNMGWFRQAPGKEREFVAGIKWVSGSNRAYAESVKGRFTISRDNAKNTVYLQMNSLKPEDTAVYYCAAATGQSYVPIREYEYVYWGQGTQVTVS
chain 2: GPPCPPCPAPEFLGGPSVFLFPPKPKDTLMISRTPEVTCVVVDVSQEDPEVQFNWYVDGVEVHNAKTKPREEQFNSTYRVVSVLTVLHQDWLNGKEYKCKVSNKGLPSSIEKTISKAKGQPREPQVCTLPPSQEEMTKNQVSLSCAVKGFYPSDIAVEWESNGQPENNYKTTPPVLDSDGSFFLVSRLTVDKSRWQEGNVFSCSVMHEALHNHYTQKSLSLSLGKGGGGSGGGGSGGGGSEVQLLESGGGLVQPGGSLRLSCAASGFTFGNYDMAWVRQAPGKRPEWVSSIDTGGDITHYADSVKGRFTISRDNAKNTLYLQMNSLRPEDTAVYWCATDEEYALGPNEFDYYGQGTLVTVSS
B2: CIgG4E2A1(G4S)3 (Fc fusion)
chain 1: GPPCPPCPAPEFLGGPSVFLFPPKPKDTLMISRTPEVTCVVVDVSQEDPEVQFNWYVDGVEVHNAKTKPREEQFNSTYRVVSVLTVLHQDWLNGKEYKCKVSNKGLPSSIEKTISKAKGQPREPQVYTLPPCQEEMTKNQVSLWCLVKGFYPSDIAVEWESNGQPENNYKTTPPVLDSDGSFFLYSRLTVDKSRWQEGNVFSCSVMHEALHNHYTQKSLSLSLGKGGGGSGGGGSGGGGSDVQLQESGGGLVQAGGSLRLSCAASGRTISRYAVGWFRRPPAKEREFIGINWSGGSTTYADSAEGRFIISRDNAKNTVYLQMNSLKPEDTAVYYCAVPSVLVQGGISNPSQYDYWGQGTQVTVS
chain 2: B1 chain 2
B3: CIgG4E2A1(RS) (Fc fusion)
chain 1: GPPCPPCPAPEFLGGPSVFLFPPKPKDTLMISRTPEVTCVVVDVSQEDPEVQFNWYVDGVEVHNAKTKPREEQFNSTYRVVSVLTVLHQDWLNGKEYKCKVSNKGLPSSIEKTISKAKGQPREPQVYTLPPCQEEMTKNQVSLWCLVKGFYPSDIAVEWESNGQPENNYKTTPPVLDSDGSFFLYSRLTVDKSRWQEGNVFSCSVMHEALHNHYTQKSLSLSLGKRSDVQLQESGGGLVQAGGSLRLSCAASGRTISRYAVGWFRRPPAKEREFIGINWSGGSTTYADSAEGRFIISRDNAKNTVYLQMNSLKPEDTAVYYCAVPSVLVQGGISNPSQYDYWGQGTQVTVS
chain 2: GPPCPPCPAPEFLGGPSVFLFPPKPKDTLMISRTPEVTCVVVDVSQEDPEVQFNWYVDGVEVHNAKTKPREEQFNSTYRVVSVLTVLHQDWLNGKEYKCKVSNKGLPSSIEKTISKAKGQPREPQVCTLPPSQEEMTKNQVSLSCAVKGFYPSDIAVEWESNGQPENNYKTTPPVLDSDGSFFLVSRLTVDKSRWQEGNVFSCSVMHEALHNHYTQKSLSLSLGKRSEVQLLESGGGLVQPGGSLRLSCAASGFTFGNYDMAWVRQAPGKRPEWVSSIDTGGDITHYADSVKGRFTISRDNAKNTLYLQMNSLRPEDTAVYWCATDEEYALGPNEFDYYGQGTLVTVSS
B4: CIgG4E3A1(RS) (Fc fusion)
chain 1: GPPCPPCPAPEFLGGPSVFLFPPKPKDTLMISRTPEVTCVVVDVSQEDPEVQFNWYVDGVEVHNAKTKPREEQFNSTYRVVSVLTVLHQDWLNGKEYKCKVSNKGLPSSIEKTISKAKGQPREPQVYTLPPCQEEMTKNQVSLWCLVKGFYPSDIAVEWESNGQPENNYKTTPPVLDSDGSFFLYSRLTVDKSRWQEGNVFSCSVMHEALHNHYTQKSLSLSLGKRSDVQLQESGGGLVQAGGSLRLACAASGRTLSSYVVSWFRQAPGKERKFVAAITWSGLSTTYLDSVQGRFTISRDNTKDTVYLQMNSLKPQDTAIYYCAAGPNIPSILRTRESEYAYWGQGTQVTVS
chain 2: B3 chain 2
B5: CIgG4E2A1(G4S)1 (Fc fusion)
chain 1: GPPCPPCPAPEFLGGPSVFLFPPKPKDTLMISRTPEVTCVVVDVSQEDPEVQFNWYVDGVEVHNAKTKPREEQFNSTYRVVSVLTVLHQDWLNGKEYKCKVSNKGLPSSIEKTISKAKGQPREPQVYTLPPCQEEMTKNQVSLWCLVKGFYPSDIAVEWESNGQPENNYKTTPPVLDSDGSFFLYSRLTVDKSRWQEGNVFSCSVMHEALHNHYTQKSLSLSLGKGGGGSDVQLQESGGGLVQAGGSLRLSCAASGRTISRYAVGWFRRPPAKEREFIGINWSGGSTTYADSAEGRFIISRDNAKNTVYLQMNSLKPEDTAVYYCAVPSVLVQGGISNPSQYDYWGQGTQVTVS
chain 2: GPPCPPCPAPEFLGGPSVFLFPPKPKDTLMISRTPEVTCVVVDVSQEDPEVQFNWYVDGVEVHNAKTKPREEQFNSTYRVVSVLTVLHQDWLNGKEYKCKVSNKGLPSSIEKTISKAKGQPREPQVCTLPPSQEEMTKNQVSLSCAVKGFYPSDIAVEWESNGQPENNYKTTPPVLDSDGSFFLVSRLTVDKSRWQEGNVFSCSVMHEALHNHYTQKSLSLSLGKGGGGSEVQLLESGGGLVQPGGSLRLSCAASGFTFGNYDMAWVRQAPGKRPEWVSSIDTGGDITHYADSVKGRFTISRDNAKNTLYLQMNSLRPEDTAVYWCATDEEYALGPNEFDYYGQGTLVTVSS
B6: CIgG4E3A1(G4S)1 (Fc fusion)
chain 1: GPPCPPCPAPEFLGGPSVFLFPPKPKDTLMISRTPEVTCVVVDVSQEDPEVQFNWYVDGVEVHNAKTKPREEQFNSTYRVVSVLTVLHQDWLNGKEYKCKVSNKGLPSSIEKTISKAKGQPREPQVYTLPPCQEEMTKNQVSLWCLVKGFYPSDIAVEWESNGQPENNYKTTPPVLDSDGSFFLYSRLTVDKSRWQEGNVFSCSVMHEALHNHYTQKSLSLSLGKGGGGSDVQLQESGGGLVQAGGSLRLACAASGRTLSSYVVSWFRQAPGKERKFVAAITWSGLSTTYLDSVQGRFTISRDNTKDTVYLQMNSLKPQDTAIYYCAAGPNIPSILRTRESEYAYWGQGTQVTVS
chain 2: B5 chain 2
B7: CIgG4E2A1(G4S)2 (Fc fusion)
chain 1: GPPCPPCPAPEFLGGPSVFLFPPKPKDTLMISRTPEVTCVVVDVSQEDPEVQFNWYVDGVEVHNAKTKPREEQFNSTYRVVSVLTVLHQDWLNGKEYKCKVSNKGLPSSIEKTISKAKGQPREPQVYTLPPCQEEMTKNQVSLWCLVKGFYPSDIAVEWESNGQPENNYKTTPPVLDSDGSFFLYSRLTVDKSRWQEGNVFSCSVMHEALHNHYTQKSLSLSLGKGGGGSGGGGSDVQLQESGGGLVQAGGSLRLSCAASGRTISRYAVGWFRRPPAKEREFIGINWSGGSTTYADSAEGRFIISRDNAKNTVYLQMNSLKPEDTAVYYCAVPSVLVQGGISNPSQYDYWGQGTQVTVS
chain 2: GPPCPPCPAPEFLGGPSVFLFPPKPKDTLMISRTPEVTCVVVDVSQEDPEVQFNWYVDGVEVHNAKTKPREEQFNSTYRVVSVLTVLHQDWLNGKEYKCKVSNKGLPSSIEKTISKAKGQPREPQVCTLPPSQEEMTKNQVSLSCAVKGFYPSDIAVEWESNGQPENNYKTTPPVLDSDGSFFLVSRLTVDKSRWQEGNVFSCSVMHEALHNHYTQKSLSLSLGKGGGGSGGGGSEVQLLESGGGLVQPGGSLRLSCAASGFTFGNYDMAWVRQAPGKRPEWVSSIDTGGDITHYADSVKGRFTISRDNAKNTLYLQMNSLRPEDTAVYWCATDEEYALGPNEFDYYGQGTLVTVSS
B8: CIgG4E3A1(G4S)2 (Fc fusion)
chain 1: GPPCPPCPAPEFLGGPSVFLFPPKPKDTLMISRTPEVTCVVVDVSQEDPEVQFNWYVDGVEVHNAKTKPREEQFNSTYRVVSVLTVLHQDWLNGKEYKCKVSNKGLPSSIEKTISKAKGQPREPQVYTLPPCQEEMTKNQVSLWCLVKGFYPSDIAVEWESNGQPENNYKTTPPVLDSDGSFFLYSRLTVDKSRWQEGNVFSCSVMHEALHNHYTQKSLSLSLGKGGGGSGGGGSDVQLQESGGGLVQAGGSLRLACAASGRTLSSYVVSWFRQAPGKERKFVAAITWSGLSTTYLDSVQGRFTISRDNTKDTVYLQMNSLKPQDTAIYYCAAGPNIPSILRTRESEYAYWGQGTQVTVS
chain 2: B7 chain 2

T1 sequence (P01854 other isoform, or with tags, fused parts or gaps): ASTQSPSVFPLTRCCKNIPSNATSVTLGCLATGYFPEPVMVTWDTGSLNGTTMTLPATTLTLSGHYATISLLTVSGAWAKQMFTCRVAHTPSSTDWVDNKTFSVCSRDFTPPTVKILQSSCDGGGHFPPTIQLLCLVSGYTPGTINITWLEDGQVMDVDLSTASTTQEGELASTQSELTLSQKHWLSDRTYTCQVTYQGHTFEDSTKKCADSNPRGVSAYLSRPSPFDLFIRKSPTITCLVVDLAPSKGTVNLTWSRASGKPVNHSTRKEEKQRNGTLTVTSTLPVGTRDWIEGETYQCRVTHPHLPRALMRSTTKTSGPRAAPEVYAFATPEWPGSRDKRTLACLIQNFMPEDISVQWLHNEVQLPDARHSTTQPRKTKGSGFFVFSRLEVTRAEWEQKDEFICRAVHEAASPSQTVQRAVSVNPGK

This experiment addresses T1, recombinant human IgE (human, UniProt P01854-1 1-428).
T1 construct: made in-house (ALK); preloaded on immobilised FcεRIα in the displacement ELISA
The experiment can be described thus: IgE-FcεRIα displacement ELISA. The procedure, abridged: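 Streptavidin-coated plates carried site-specifically biotinylated recombinant human FcεRIα, loaded with recombinant human IgE at 13 ng/ml. sdAbs in a pM–μM series were added for 1 h, and displaced IgE was washed off. Percent displacement was the signal reduction versus the no-sdAb control, giving EC50 and maximal effect.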
Background: ELISA stands for enzyme-linked immunosorbent assay.
As for B1, the 50% effective concentration (EC50) came to 0.009 µM and the Max effect is above 95%.

On to B2, for which the EC50 was found to be 0.16 µM and the Max effect is 75%.

Consider B3, for which the Max effect came out at 25%.

Turning to B4, the Max effect is 30%.

As for B5, the EC50 came out at 1 µM and the Max effect was found to be 50%.

As for B6, the concentration for a half-maximal effect (EC50) was determined as 0.13 µM and the Max effect worked out at 85%.

As for B7, the concentration for a half-maximal effect (EC50) came to 0.41 µM and the Max effect came out at 65%.

Consider B8, for which the EC50 came to 0.05 µM and the Max effect is above 95%.
